US20050032681A1 (TEMPLE UNIV OF THE COMMONWEALTH SYSTEM OF HIGHER EDUCATION …, published 2005)
Positions count from the first letter of the chain named. Names and notes keep the numbering of the source.

B1: 5EA modified ATIII (on human ATIII.N135A background) (other)
chain: HGSPVDICTAKPRDIPMNPMCIYRSPEKKATEDEGSEQKIPEATNRRVWELSKANSRFATTFYQHLADSKNDNDNIFLSPLSISTAFAMTKLGACNDTLQQLMEVFKFDTISEKTSDQIHFFFAKLNCRLYRKAAKSSKLVSANRLFGDKSLTFNETYQDISELVYGAKLQPLDFKENAEQSRAAINKWVSNKTEGRITDVIPSEAINELTVLVLVNTIYFKGLWKSKFSPENTRKELFYKADGESCSASMMYQEGKFRYRRVAEGTQVLELPFKGDDITMVLILPKPEKSLAKVEKELTPEVLQEWLDELEEMMLVVHMPRFRIEDGFSLKEQLQDMGLVDLFSPEKSKLPGIVAEGRDDLYVSDAFHKAFLEVNEEGSEAAASTAVEAAGRSLNPNRVTFKANRPFLVFIREVPLNTIIFMGRVANPCVK
notes: Recombinant, baculovirus/Sf9, N135A background; also called AT.5EA
B2: 13 A modified ATIII (on human ATIII.N135A background) (other)
chain: B1 chain with A390G
notes: Recombinant, baculovirus/Sf9, N135A background; also called AT.13.A
B3: F2A′ modified ATIII (on human ATIII.N135A background) (other)
chain: B1 chain with A387Q, V388T, E389P, A390P, A391N
B4: Bb.C modified ATIII (on human ATIII.N135A background) (other)
chain: B1 chain with T386E, A387E, V388G, A391S
modifications: Sf9-expressed glycoprotein: N-glycans expected at Asn 96, 155 and 192 (written N); Asn135 site removed by N135A.
B5: 13.D modified ATIII (on human ATIII.N135A background) (other)
chain: B1 chain with V388L, A390G
notes: Recombinant, baculovirus/Sf9, N135A background; also called AT.13.D
B6: LEAI modified ATIII (on human ATIII.N135A background) (other)
chain: B1 chain with V388L, A391I
notes: substitutions derived against S T A V V I A G R with the numbering of footnote c; also called AT3.LEAI
B7: Bb.B modified ATIII (on human ATIII.N135A background) (other)
chain: B1 chain with A387E, V388G, A390G, A391S
notes: Recombinant, baculovirus/Sf9, N135A background; also called AT.Bb.B
B8: 13.B modified ATIII (on human ATIII.N135A background) (other)
chain: B1 chain with A387E, A390G
notes: Recombinant, baculovirus/Sf9, N135A background; also called AT.13.B
B9: Aa modified ATIII (on human ATIII.N135A background) (other)
chain: B1 chain with V388E, E389G, A390G, A391G
notes: Recombinant, baculovirus/Sf9, N135A background; also called AT.Aa
B10: Bb.A modified ATIII (on human ATIII.N135A background) (other)
chain: B1 chain with A387E, V388G, A391S
notes: Recombinant, baculovirus/Sf9, N135A background; also called AT.Bb.A
B11: 7EVEA modified ATIII (on human ATIII.N135A background) (other)
chain: B1 chain with A387E
notes: Recombinant, baculovirus/Sf9, N135A background; also called AT.7EVEA
B12: FF modified ATIII (on human ATIII.N135A background) (other)
chain: B1 chain with E389F, A390F
notes: Recombinant, baculovirus/Sf9, N135A background; also called AT.FF
B13: 13.C modified ATIII (on human ATIII.N135A background) (other)
chain: B1 chain with A387E, V388L, A390G
notes: Recombinant, baculovirus/Sf9, N135A background; also called AT.13.C
B14: Bb.D modified ATIII (on human ATIII.N135A background) (other)
chain: B1 chain with T386E, A387E, V388G, A390G, A391S
notes: Recombinant, baculovirus/Sf9, N135A background; also called AT.Bb.D
B15: Bb modified ATIII (on human ATIII.N135A background) (other)
chain: B1 chain with A387E, V388G, E389F, A390F, A391S
notes: Recombinant, baculovirus/Sf9, N135A background; also called AT.Bb; Bb mutant

Experiments:
human factor Xa = molecular target: T1, human factor Xa (human, UniProt P00742 41-179; P00742 235-488, limits assumed); experiment: pseudo-first-order factor Xa inhibition kinetics, residual activity with S-2765, 25 C, polybrene
T1 construct: that the active enzyme has two chains is from general knowledge
T1 sequence (P00742 41-179 limits assumed, chain 1 of 2): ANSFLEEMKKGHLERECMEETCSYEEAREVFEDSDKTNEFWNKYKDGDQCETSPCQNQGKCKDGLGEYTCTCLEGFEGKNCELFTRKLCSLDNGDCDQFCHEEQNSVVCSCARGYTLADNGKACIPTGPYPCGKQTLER
T1 sequence (P00742 235-488 limits assumed, chain 2 of 2): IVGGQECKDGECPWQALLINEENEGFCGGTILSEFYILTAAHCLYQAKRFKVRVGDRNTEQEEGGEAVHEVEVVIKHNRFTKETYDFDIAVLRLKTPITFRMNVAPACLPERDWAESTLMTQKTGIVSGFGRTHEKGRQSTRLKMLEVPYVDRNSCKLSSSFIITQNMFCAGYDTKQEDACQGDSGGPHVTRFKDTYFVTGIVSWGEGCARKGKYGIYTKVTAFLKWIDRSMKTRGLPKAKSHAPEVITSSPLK
Protocol: (§1) Forty μL aliquots of ATIII samples at varying concentrations (450 nM, 300 nM, 150 nM) in PNE-PEG plus 50 μL polybrene (to neutralize any contaminating heparin) were preloaded into quadruplicate wells of a low-binding 96-well assay plate (Corning). The plate was maintained at 25° C., and 20 μL aliquots of 30 nM human thrombin or 15 nM human factor Xa were added to each of the four wells at successive 5 minute intervals. Reactions were quenched 5 minutes after addition of enzyme to the last of the wells by the adding 100 μL of 1.5 mM chromogenic substrate (S-2238 for thrombin; S-2765 for factor Xa). Residual enzyme activity was measured on a BioTek ELS11X kinetic plate reader controlled by a Macintosh SE with Deltasoft software. Initial rates of chromogenic substrate cleavage were monitored at 405 nm.

[1] = molecular target: T2, human neutrophil elastase (human, UniProt P08246 30-247, limits assumed); experiment: cell-based or functional assay
T2 sequence (looked up): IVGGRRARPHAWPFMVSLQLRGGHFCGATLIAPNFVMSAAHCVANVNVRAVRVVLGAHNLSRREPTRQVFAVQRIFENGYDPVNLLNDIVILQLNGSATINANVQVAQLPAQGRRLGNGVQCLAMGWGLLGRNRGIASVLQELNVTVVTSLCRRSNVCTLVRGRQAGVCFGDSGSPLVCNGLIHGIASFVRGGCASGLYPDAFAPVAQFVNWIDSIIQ

human α-thrombin = human α-thrombin (human, UniProt P00734 328-363; P00734 364-622); experiment: pseudo-first-order thrombin inhibition kinetics, residual activity with S-2238, 25 C, polybrene
Protocol: as §1

Human Cathepsin G = molecular target: T3, Human Cathepsin G (human, UniProt P08311 21-244); experiment: cell-based or functional assay
T3 sequence (looked up): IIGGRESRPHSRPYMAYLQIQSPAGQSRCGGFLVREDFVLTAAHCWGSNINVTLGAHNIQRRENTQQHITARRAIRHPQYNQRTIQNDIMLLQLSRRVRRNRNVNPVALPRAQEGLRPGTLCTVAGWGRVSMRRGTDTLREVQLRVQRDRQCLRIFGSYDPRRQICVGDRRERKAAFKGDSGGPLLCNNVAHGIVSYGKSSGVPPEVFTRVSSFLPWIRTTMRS

| Binder | kapp (apparent second-order rate constant of association) (human factor Xa) [M⁻¹ s⁻¹] | HNE resistance T1/2, min [1] [min] | kapp (apparent second-order rate constant of association) (human α-thrombin) [M⁻¹ s⁻¹] | Cathepsin G resistance T1/2, min (Human Cathepsin G) [min] |
| --- | --- | --- | --- | --- |
| B1 | 3100 | 3.2 | 600 |  |
| B2 | 500 | 2.1 | 200 |  |
| B3 |  | 2.6 |  |  |
| B4 |  | 437 |  |  |
| B5 | 3300 | 2.6 |  |  |
| B6 | 7000 | 2.8 | 3600 | 6.1 |
| B7 | 700 | 44.8 |  | 16.2 |
| B8 | 2800 | 7.6 |  |  |
| B9 | 400 | 9.1 | 400 |  |
| B10 | 6200 | 27.4 | 500 | > 45 |
| B11 | 4800 | 5.6 | 600 |  |
| B12 | 3000 | < 2.5 | 1400 |  |
| B13 | 5100 | 10.1 |  |  |
| B14 |  | > 45 | 100 |  |
| B15 | 4500 | 15.8 | 3600 | 1.4 |
